3 molecules from publication PMC7316729, “The cryo-EM structure of the bacterial flagellum cap complex suggests a molecular mechanism for filament elongation” (Nature Communications, 2020) can be followed below.

Several values for one entry are separate records, joined by “and”; a condition that tells them apart may be missing. Equal entries are not always repeated.

Data set [1] concerns the molecule itself. The data set is described as follows: negative-stain TEM with 2D classification; purified protein on carbon-coated copper grids, 0.75% uranyl formate; ~3500 particles for FliDsm and 2700 for FliDpa, 2D class averages.
Data set [2] deals with the molecule itself. The data set is described as follows: cryo-EM structure; purified FliDcj at 1 mg/ml vitrified on holey carbon grids; protein in 50 mM HEPES 150 mM NaCl pH 7; D5 symmetry (full map, 4.7 Å), C5 (head map, 5.0 Å).
For data set [3], the target named is T1, FliD from Pseudomonas aeruginosa, full length (P. aeruginosa), Q9K3C5.
T1 chain: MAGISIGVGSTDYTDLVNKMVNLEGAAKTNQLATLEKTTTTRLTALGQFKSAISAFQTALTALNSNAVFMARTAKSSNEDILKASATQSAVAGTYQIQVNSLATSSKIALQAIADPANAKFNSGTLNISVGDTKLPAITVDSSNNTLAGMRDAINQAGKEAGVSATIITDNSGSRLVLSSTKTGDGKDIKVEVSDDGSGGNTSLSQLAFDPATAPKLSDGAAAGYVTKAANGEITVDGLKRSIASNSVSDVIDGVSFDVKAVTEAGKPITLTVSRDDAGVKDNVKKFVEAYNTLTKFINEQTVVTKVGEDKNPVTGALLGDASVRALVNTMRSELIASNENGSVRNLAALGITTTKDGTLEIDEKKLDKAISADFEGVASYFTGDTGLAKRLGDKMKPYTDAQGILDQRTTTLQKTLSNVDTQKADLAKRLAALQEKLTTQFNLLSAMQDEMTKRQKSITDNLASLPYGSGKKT
The data set is described as follows: negative-stain TEM with 2D classification; purified protein on carbon-coated copper grids, 0.75% uranyl formate; ~3500 particles for FliDsm and 2700 for FliDpa, 2D class averages. Particulars: remark: other sources report otherwise.

B1: FliD from Serratia marcescens, full length (natural protein)
chain: MATISSLGLGSGLDLNGLLDKLTKAEQQRLTPYTTKQSSYNAQLTGYGTLKGALEKFDNLSKEMAKEDFFKATTATEHDAFKITTNAKAVPGNYVVEVNKLAQAQTLTTQAKVSDQGAKLGAEGVTDRSLTITAGNPPKETKIPLSDDQTSLVELRDAINGAKAGVTASIMRVGDNDYQLAVSSSTTGENNKISLQVDNDDQLGDILNYNATRGTGTAMKQTVAPQDAELTVNGTAIKRSTNSISDALQGVTIDLKTKTKTDEPQHLVISTNTAGTTDKIKEWVDSYNSLLDTFNALSKFTPVKTGEAPNPTNGPLLGDNTLRGIQSSIKSALSAAQDNPELKGLGNLGISTNTKTGKLEIDSAKLKKAMDEKPDQVSNFFVGNGKDTGMATEIHNEIQSYIKSGGIIENSTKSINTNLDRLNSQITTVTASIQNTIDRYKQQFVQLDTMMSKMNGTSNYLAQQFK
notes: FliD (flagellar cap protein) of Serratia marcescens; gene codon-optimised for E. coli, synthesised and sub-cloned into pET28a; The head domain of this protein is PDB 5XLJ (cited); also called FliDsm; source: E. coli BL21-CodonPlus(DE3)-RIL, purified (Ni-NTA, Superdex 200 SEC)
As a reminder, the stoichiometry N is the number of molecules, sites or subunits per partner or assembly. Regarding B1, the “stoichiometry N” value in data set [1] was 5.

B2: FliD from Campylobacter jejuni, full length (flagellum cap protein) (natural protein)
chain: MAFGSLSSLGFGSGVLTQDTIDKLKEAEQKARIDPYTKKIEENTTKQKDLTEIKTKLLSFQTAVSSLADATVFAKRKVVGSISDNPPASLTVNSGVALQSMNINVTQLAQKDVYQSKGLANDGGFVNAQLNGTADLTFFSNGKEYTVTVDKNTTYRDLADKINEASGGEIVAKIVNTGEKGTPYRLTLTSKETGEDSAISFYAGKKDSNGKYQKDINAEKIFDDLGWGLDVSASIDPDKDKKGYGIKDASLHIQTAQNAEFTLDGIKMFRSSNTVTDLGVGMTLTLNKTGEINFDVQQDFEGVTKAMQDLVDAYNDLVTNLNAATDYNSETGTKGTLQGISEVNSIRSSILADLFDSQVVDGTTEDANGNKVNTKVMLSMQDFGLSLNDAGTLSFDSSKFEQKVKEDPDSTESFFSNITKYEDINHTGEVIKTGSLSKYLNSNGGNTNGLEFKPGDFTIVFNNQTYDLSKNSDGTNFKLTGKTEEELLQNLANHINSKGIEGLKVKVESYNQNNVTGFRLNFSGDGSSDFSIKGDANILKELGLSDVNITSKPIEGKGIFSKLKATLQEMTGKDGSITKYDESLTNDIKSLNTSKDSTQAMIDTRYDTMANQWLQYESILNKLNQQLNTVTNMINAANNSNN
notes: FliD (flagellar cap protein, HAP2) of Campylobacter jejuni; gene codon-optimised for E. coli, synthesised and sub-cloned into pET28a; printed numbering runs to residue 643 (C-terminus 577-643); The D4 domain was not built in the model 6SIH; also called FliDcj; HAP2; source: E. coli BL21-CodonPlus(DE3)-RIL, purified (Ni-NTA, Superdex 200 SEC)
B2: the “stoichiometry N” value in data set [2] is 10 and 5.

B3: FliD from Pseudomonas aeruginosa, full length, Q9K3C5 1-474 (natural protein)
chain: T1 chain
For B3, in data set [3], the percent of particles that are pentamers was 25.5% and the stoichiometry N was 5.
